Assay results reported in publication PMC3245711.

Target: human KCNJ12 channel (pND-CTFH construct, C-terminal FLAG and octa-histidine tags) (human) (UniProt Q14500)
Assay: SEC

Sequence of human KCNJ12 channel (pND-CTFH construct, C-terminal FLAG and octa-histidine tags) (Q14500 whole entry): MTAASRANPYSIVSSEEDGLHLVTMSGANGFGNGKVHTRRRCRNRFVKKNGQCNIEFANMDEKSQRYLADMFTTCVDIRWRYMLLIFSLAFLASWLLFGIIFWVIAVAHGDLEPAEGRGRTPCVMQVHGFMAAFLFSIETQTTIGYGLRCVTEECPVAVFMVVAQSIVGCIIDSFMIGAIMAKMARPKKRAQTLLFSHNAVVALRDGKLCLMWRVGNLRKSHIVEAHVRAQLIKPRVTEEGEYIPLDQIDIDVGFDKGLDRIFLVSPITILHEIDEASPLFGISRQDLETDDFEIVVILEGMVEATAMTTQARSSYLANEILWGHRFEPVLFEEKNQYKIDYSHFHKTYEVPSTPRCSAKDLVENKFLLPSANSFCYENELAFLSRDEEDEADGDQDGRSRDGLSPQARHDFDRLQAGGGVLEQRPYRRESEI

stoichiometry N: 4
Substance: human KCNJ12 channel (pND-CTFH construct, C-terminal FLAG and octa-histidine tags) (from UniProt Q14500 1-433) (natural protein)
